We go through one protein from PMC4243253.

Substrate in this data set: N[C@@H](CC(=O)c1ccccc1NC=O)C(=O)O
As to the kind of experiment: purified protein. It is filed as biochemical, Burkholderia cenocepacia. The note with it: 0.1 M sodium phosphate, pH 7.4, 20 μM ZnCl2, 25°C.

B1: BcKynB (Burkholderia cenocepacia J2315) (protein)
chain: MDTLWDISPPVSPATPVWPGDTPVAVERVWRMEAGSPVNVARLTLSPHTGAHCDAPLHYDADGAPIGAVPLDTYLGPCRVIHCIGAAPVVRPADVEAALDGVPPRVLLRTYARAAVEQWDSNFCAVAPDTVDLLAAHGVKLIGIDTPSLDPQESKTMDAHRRVRAHRMAILEGIVLDDVPPGDYELIALPLKFATLDASPVRAVLRALPAQAS
Broadly, the Km is the substrate concentration at which the rate is half of its maximum. What is called Vmax is the rate approached at saturating substrate. As usually defined, the kcat is the number of substrate molecules converted per active site and unit of time at saturation. One may read the kcat/Km as the turnover number divided by the Michaelis constant. In the case of B1, the Km was 570 ± 20 µM, the Vmax came to 0.0582 µmol/min, the kcat amounted to 43.9 s⁻¹ and the kcat/Km worked out at 77100 M⁻¹ s⁻¹.
